Data from IntAct's records for PubMed 26886794.

B1: Histone-lysine N-methyltransferase SETD1B (Homo sapiens), Q9UPS6-2 (parent)
chain: MENSHPPHHHHQQPPPQPGPSGERRNHHWRSYKLMIDPALKKGHHKLYRYDGQHFSLAMSSNRPVEIVEDPRVVGIWTKNKELELSVPKFKIDEFYVGPVPPKQVTFAKLNDNIRENFLRDMCKKYGEVEEVEILYNPKTKKHLGIAKVVFATVRGAKDAVQHLHSTSVMGNIIHVELDTKGETRMRFYELLVTGRYTPQTLPVGELDAVSPIVNETLQLSDALKRLKDGGLSAGCGSGSSSVTPNSGGTPFSQDTAYSSCRLDTPNSYGQGTPLTPRLGTPFSQDSSYSSRQPTPSYLFSQDPAVTFKARRHESKFTDAYNRRHEHHYVHNSPAVTAVAGATAAFRGSSDLPFGAVGGTGGSSGPPFKAQPQDSATFAHTPPPAQATPAPGFKSAFSPYQTPVAHFPPPPEEPTATAAFGARDSGEFRRAPAPPPLPPAEPLAKEKPGTPPGPPPPDTNSMELGGRPTFGWSPEPCDSPGTPTLESSPAGPEKPHDSLDSRIEMLLKEQRTKLLFLREPDSDTELQMEGSPISSSSSQLSPLAPFGTNSQPGFRGPTPPSSRPSSTGLEDISPTPLPDSDEDEELDLGLGPRPPPEPGPPDPAGLLSQTAEVALDLVGDRTPTSEKMDEGQQSSGEDMEISDDEMPSAPITSADCPKPMVVTPGAAAVAAPSVLAPTLPLPPPPGFPPLPPPPPPPPPQPGFPMPPPLPPPPPPPPPAHPAVTVPPPPLPAPPGVPPPPILPPLPPFPPGLFPVMQVDMSHVLGGQWGGMPMSFQMQTQVLSRLMTGQGACPYPPFMAAAAAAASAGLQFVNLPPYRGPFSLSNSGPGRGQHWPPLPKFDPSVPPPGYMPRQEDPHKATVDGVLLVVLKELKAIMKRDLNRKMVEVVAFRAFDEWWDKKERMAKASLTPVKSGEHKDEDRPKPKDRIASCLLESWGKGEGLGYEGLGLGIGLRGAIRLPSFKVKRKEPPDTTSSGDQKRLRPSTSVDEEDEESERERDRDMADTPCELAKRDPKGVGVRRRPARPLELDSGGEEDEKESLSEEQESTEEEEEAEEEEEEEDDDDDDSDDRDESENDDEDTALSEASEKDEGDSDEEETVSIVTSKAEATSSSESSESSEFESSSESSPSSSEDEEEVVAREEEEEEEEEEMVAEESMASAGPEDFEQDGEEAALAPGAPAVDSLGMEEEVDIETEAVAPEERPSMLDEPPLPVGVEEPADSREPPEEPGLSQEGAMLLSPEPPAKEVEARPPLSPERAPEHDLEVEPEPPMMLPLPLQPPLPPPRPPRPPSPPPEPETTDASHPSVPPEPLAEDHPPHTPGLCGSLAKSQSTETVPATPGGEPPLSGGSSGLSLSSPQVPGSPFSYPAPSPSLSSGGLPRTPGRDFSFTPTFSEPSGPLLLPVCPLPTGRRDERSGPLASPVLLETGLPLPLPLPLPLPLALPAVLRAQARAPTPLPPLLPAPLASCPPPMKRKPGRPRRSPPSMLSLDGPLVRPPAGAALGRELLLLPGQPQTPVFPSTHDPRTVTLDFRNAGIPAPPPPLPPQPPPPPPPPPVEPTKLPFKELDNQWPSEAIPPGPRGRDEVTEEYMELAKSRGPWRRPPKKRHEDLVPPAGSPELSPPQPLFRPRSEFEEMTILYDIWNGGIDEEDIRFLCVTYERLLQQDNGMDWLNDTLWVYHPSTSLSSAKKKKRDDGIREHVTGCARSEGFYTIDKKDKLRYLNSSRASTDEPPADTQGMSIPAQPHASTRAGSERRSEQRRLLSSFTGSCDSDLLKFNQLKFRKKKLKFCKSHIHDWGLFAMEPIAADEMVIEYVGQNIRQVIADMREKRYEDEGIGSSYMFRVDHDTIIDATKCGNFARFINHSCNPNCYAKVITVESQKKIVIYSKQHINVNEEITYDYKFPIEDVKIPCLCGSENCRGTLN

Variants of: B1
Conditions: with ASH2L

| Variant | effect of a mutation on the interaction |
| --- | --- |
| R1819A | disrupting interaction strength |
